Measured values published in PMC9646512.

Key:
Details in all cases: all L-DNA (mirror image); ITC: 20 mM HEPES-NaOH, 150 mM NaCl, 5 mM KCl, 2 mM MgCl2, 1 mM CaCl2, pH 7.4, 25 C; EMSA: same plus 0.05% Tween 20 and 10% glycerol, room temperature 30 min …
[1] = biological target: T1, native human alpha-thrombin (Homo sapiens) (UniProt P00734+P00734); assay: EMSA
[2] = biological target: T1, native human alpha-thrombin (Homo sapiens); assay: ITC
[3] = biological target: native bovine alpha-thrombin (Bos taurus (bovine)) (UniProt P00735+P00735); assay: ITC
[4] = biological target: T1, native human alpha-thrombin (Homo sapiens); assay: thrombin activity inhibition

| Sequence | Kd [1] [nM] | Kd [2] [nM] | Kd [3] [nM] | IC50 [4] [nM] |
| --- | --- | --- | --- | --- |
| ACGGAACGCGTTTCAAGACTACCGTGTTTGTTCCGT [Cy5-L-9-1t aptamer] | 21 | – | – | – |
| ACGGAACGCGTTTCAAGACTACCGTGTTTGTTCCGT [L-9-1t aptamer] | – | 39 | 1030 | – |
| CGGATCCAGTTACGGAACGCGTTTCAAGACTACCGTGTTTGTTCCGTTCATTCAGTAAGCTTCGG [L-9-1 aptamer] | – | 29 | – | – |
| CGGATCCAGTTACGGATGAACTTGTTGAAACCCAACGGGAGAATCGTTCATTCAGTAAGCTTCGG [L-9-2 aptamer] | – | 168 | – | 317 |
| CGGATCCAGTTACGGATGAACTTGTTGAAACCCAACGGGAGCCTCGTTCATTCAGTAAGCTTCGGTGG [L-13 aptamer] | – | 22 | – | 27 |
| GATGAACTTGTTGAAACCCAACGGGAGAATCGTTCATT [Cy5-L-9-2t aptamer] | 355 | – | – | – |
| GATGAACTTGTTGAAACCCAACGGGAGAATCGTTCATT [L-9-2t aptamer] | – | 251 | 426 | 479 |
| GATGAACTTGTTGAAACCCAACGGGAGCCTCGTTCATT [Cy5-L-13t aptamer] | 28 | – | – | – |
| GATGAACTTGTTGAAACCCAACGGGAGCCTCGTTCATT [L-13t aptamer] | – | 34 | 340 | 46 |
| GGAACGCGTTTCAAGACTACCGTGTTTGTTCC [L-9-1t' aptamer] | – | 111 | – | – |
